Where “and” joins values, the source holds several entries; their conditions need not be identical. Equal entries are not always repeated.
Conditions: Homo sapiens; pH 7.8; Thermal; DSC; potassium phosphate 2 mM; transition: 2; reversible: Yes; whole UniProt chain shown

B1: Superoxide dismutase [Mn], mitochondrial wild type, P04179 (protein)
chain: MLSRAVCGTSRQLAPVLGYLGSRQKHSLPDLPYDYGALEPHINAQIMQLHHSKHHAAYVNNLNVTEEKYQEALAKGDVTAQIALQPALKFNGGGHINHSIFWTNLSPNGGGEPKGELLEAIKRDFGSFDKFKEKLTAASVGVQGSGWGWLGFNKERGHLQIAACPNQDPLQGTTGLIPLLGIDVWEHAYYLQYKNVRPDYLKAIWNVINWENVTERYMACKK
unfolding enthalpy (calorimetric): 142 kcal/mol and 90.6 kcal/mol
